The test system of test [1] is mouse primary hindbrain neurons (MPHN). In words: Gene expression in cultured mouse primary hindbrain neurons. To be noted: osteocalcin 3 ng/ml, 2 or 4 hours, WT and Gprc6a-/-. It is filed as cell-based. Here is the method:
For gene expression studies, RNA was isolated from primary neurons or tissue using TRIZOL® (Invitrogen). cDNA synthesis was performed following a standard protocol from Invitrogen and qPCR analyses were done using specific quantitative PCR primers from SABiosciences (www.sabiosciences.com/RT2PCR.php).
For primary culture of hindbrain neurons, E14.5 embryos were obtained from matings of 129-Sv WT mice. Hindbrains were dissected out and collected in ice-cold filter sterilized HBSS buffered with 10 mM HEPES until dissection was complete, at which point they were finely chopped into 2 mm cubes, dissociated by trituration with a fire-polished Pasteur pipette and spun down at 4° C. Cells were then plated onto poly-D-lysine coated coverslips or dishes in Neurobasal medium supplemented with 2% B27, 0.25 mM Glutamax, 0.25 mM L-glutamine, penicillin G (50 U/ml), and streptomycin sulphate ([…]). Cultures were fed every 3-6 days with one half replacement medium without L-glutamine.
To determine if osteocalcin acts directly on neurons to modulate neurotransmitter synthesis, several types of assays were performed. First, brainstem and midbrain explants from WT and Gprc6a^−/− mice were generated. […] Third, to further confirm that osteocalcin signals in neurons of the hindbrain, calcium flux in MPHN treated with undercarboxylated or carboxylated osteocalcin (FIG. 3F) was measured. […]

Test [2] concerns aged WT mice. In words: ICV infusion in aged WT mice, Novel Object Recognition test. Format: in vivo, mouse. To be noted: ICV 10 ng/hr for one month, 16 month old WT mice. The procedure: FIG. 9. Osteocalcin improves hippocampal function in aged wild-type (WT) mice. Constant and novel object investigation in the Novel Object Recognition test in 17 month old mice treated for 1 month with vehicle or 10 ng/hr recombinant uncarboxylated osteocalcin.
ICV pumps delivering (10 ng/hr) recombinant uncarboxylated full-length mouse osteocalcin were implanted in 16 month old WT mice. After an infusion period of one month, the mice were subjected to a modified version of the Novel Object Recognition test, to assay memory and hippocampal function. Briefly, mice were given five 5 minute exposures, with 3 minute resting intervals between exposures, to a novel arena containing two objects. During exposures 1-4, mice were habituated to these two objects, which elicited equal amounts of exploration. In the fifth exposure, one of the objects was replaced with a novel object.

The subject of test [3] is CREB phosphorylation in the hippocampus. In words: Acute stereotactic injection into the hippocampus, pCREB and PKA immunofluorescence. It is filed as in vivo, mouse. To be noted: 10 ng into hippocampus of WT animals, 16 h post injection. The procedure:
(§1) FIG. 10. Osteocalcin administration results in CREB phosphorylation. (A) p-CREB immunofluorescence (IF) in the dentate gyms (DG) of WT and Ocn−/− hippocampal region. (B) p-CREB IF in WT brain sections following a dual stereotactic injection of vehicle (PBS) (on the left) or Ocn (10 ng) (on the right) in the hippocampus. The arrows point toward the DG. (C) PKA IF in WT brain sections following a dual stereotactic injection of vehicle (PBS) (on the right) or Ocn (10 ng) (on the left) in the hippocampus.
(§2) The resulting effects on animal behavior of direct recombinant uncarboxylated osteocalcin delivery raise the question of the molecular mechanism of action of osteocalcin in the brain. Given that osteocalcin acts through a G-protein coupled receptor pathway in other tissues, e.g., pancreas and testis, the phosphorylated CREB levels in the hippocampi of Ocn−/− and WT animals was checked. […] The hippocampus is essential for optimal spatial learning and memory in rodents. It was then asked whether the acute stereotactic injection of 10 ng of recombinant uncarboxylated osteocalcin directly into the hippocampus of WT animals would affect pCREB levels. At 16 h post injection, pCREB staining was increased in the hemisphere injected with osteocalcin versus the one injected with PBS in the same animal (FIG. 10B).

Assay in test [4]: as above
It is filed as in vivo, mouse. To be noted: 10 ng into hippocampus, 16 h post injection. The procedure: as §1, §2

B1: uncarboxylated osteocalcin: Recombinant osteocalcin bacterially produced, cleaved from the GST subunit; completely undercarboxylated at all three sites (protein, listed as Homo sapiens)
chain: MRALTLLALLALAALCIAGQAGAKPSGAESSKGAAFVSKQEGSEVVKRPRRYLYQWLGAPVPYPDPLEPRREVCELNPDCDELADHIGFQEAYRRFYGPV
modifications: uncarboxylated
notes: Recombinant osteocalcin bacterially produced, cleaved from the GST subunit; completely undercarboxylated at all three sites
As to B1, in test [1], the “GA' expression decrease in primary brainstem neuronal culture” value was 65% and the “Tph2 expression in primary brainstem neuronal culture” value is “increased more than three-fold”. The “discrimination between novel and constant objects” value in test [2] is “able to discriminate between the novel and constant objects”. Also, the “pCREB staining in injected hemisphere versus PBS hemisphere” value in test [3] was “increased”. The “PKA staining in the injected hemisphere” value in test [4] was “widespread and dramatic increase”.

For the origin of these results see patent publication US10052364B2, “Osteocalcin as a treatment for cognitive disorders” (THE TRUSTEES OF COLUMBIA UNIVERSITY IN THE CITY OF NEW YORK, priority 2013, dated 2018).
